Data as given in the supplement of paper PMC9112550, “Optimization of the antimicrobial peptide Bac7 by deep mutational scanning” (BMC Biology, 2022).

Test system: Escherichia coli TOP10
Assay: shrunken log2 fold change of peptide-encoding DNA abundance (4.5 h post-induction vs induction); higher = less antimicrobial activity (less host growth inhibition)
Settings: time post-induction: 4.5 h; library: site-saturation at positions 5, 18, 19, 20
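Note: peptides expressed intracellularly from a pBAD plasmid library in pooled LB shake-flask culture, induced with 0.3% L-arabinose, DNA abundance read by NGS, three biological replicates, DESeq2 with apeglm shrinkage.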

Sequence: RRIRRRPPRLPRPRPRPVPMPRP
- shrunken log2 fold change: 0.452

Sequence: RRIRMRPPRLPRPRPRPRDMPRP
- shrunken log2 fold change: 0.316

Sequence: RRIRHRPPRLPRPRPRPLLPPRP
- shrunken log2 fold change: -0.0821

Sequence: RRIRWRPPRLPRPRPRPQCFPRP
- shrunken log2 fold change: 0.146

Sequence: RRIRGRPPRLPRPRPRPCYKPRP
- shrunken log2 fold change: -0.295

Sequence: RRIRKRPPRLPRPRPRPPRCPRP
- shrunken log2 fold change: 0.578

Sequence: RRIRTRPPRLPRPRPRPTCWPRP
- shrunken log2 fold change: 0.00427

Sequence: RRIRQRPPRLPRPRPRPVQKPRP
- shrunken log2 fold change: 0.25

Sequence: RRIRERPPRLPRPRPRPFMVPRP
- shrunken log2 fold change: -0.599

Sequence: RRIRQRPPRLPRPRPRPHPDPRP
- shrunken log2 fold change: -0.0624

Sequence: RRIRVRPPRLPRPRPRPEQKPRP
- shrunken log2 fold change: -0.0196

Sequence: RRIRDRPPRLPRPRPRPQHWPRP
- shrunken log2 fold change: 0.122

Sequence: RRIRHRPPRLPRPRPRPNAHPRP
- shrunken log2 fold change: -0.0872

Sequence: RRIRMRPPRLPRPRPRPCALPRP
- shrunken log2 fold change: 0.738

Sequence: RRIRRRPPRLPRPRPRPFLLPRP
- shrunken log2 fold change: 0.0441

Sequence: RRIRKRPPRLPRPRPRPIYVPRP
- shrunken log2 fold change: 0.0461

Sequence: RRIRPRPPRLPRPRPRPAQEPRP
- shrunken log2 fold change: 0.171

Sequence: RRIRFRPPRLPRPRPRPTAPPRP
- shrunken log2 fold change: 0.602

Sequence: RRIRGRPPRLPRPRPRPLKCPRP
- shrunken log2 fold change: 0.303

Sequence: RRIRVRPPRLPRPRPRPHQVPRP
- shrunken log2 fold change: -0.111

Sequence: RRIRDRPPRLPRPRPRPTTLPRP
- shrunken log2 fold change: 0.525

Sequence: RRIRNRPPRLPRPRPRPEWRPRP
- shrunken log2 fold change: 0.404

Sequence: RRIRYRPPRLPRPRPRPAAMPRP
- shrunken log2 fold change: 1.99

Sequence: RRIRIRPPRLPRPRPRPNTCPRP
- shrunken log2 fold change: -0.85

Sequence: RRIRSRPPRLPRPRPRPSLWPRP
- shrunken log2 fold change: 0.122

Sequence: RRIRYRPPRLPRPRPRPLNMPRP
- shrunken log2 fold change: -1.33

Sequence: RRIRVRPPRLPRPRPRPIFYPRP
- shrunken log2 fold change: -0.378

Sequence: RRIRQRPPRLPRPRPRPFCRPRP
- shrunken log2 fold change: -0.0325

Sequence: RRIRARPPRLPRPRPRPVSIPRP
- shrunken log2 fold change: 0.119

Sequence: RRIRKRPPRLPRPRPRPEFRPRP
- shrunken log2 fold change: 0.129

Sequence: RRIRGRPPRLPRPRPRPHEPPRP
- shrunken log2 fold change: 1.15

Sequence: RRIRCRPPRLPRPRPRPRFMPRP
- shrunken log2 fold change: -0.244

Sequence: RRIRHRPPRLPRPRPRPYYWPRP
- shrunken log2 fold change: -0.0132

Sequence: RRIRNRPPRLPRPRPRPKYHPRP
- shrunken log2 fold change: -0.442

Sequence: RRIRTRPPRLPRPRPRPPLDPRP
- shrunken log2 fold change: 0.148

Sequence: RRIRDRPPRLPRPRPRPVPMPRP
- shrunken log2 fold change: 0.115

Sequence: RRIRLRPPRLPRPRPRPWWNPRP
- shrunken log2 fold change: -0.426

Sequence: RRIRQRPPRLPRPRPRPFHQPRP
- shrunken log2 fold change: -0.00804

Sequence: RRIRERPPRLPRPRPRPIMQPRP
- shrunken log2 fold change: -0.164

Sequence: RRIRHRPPRLPRPRPRPRHQPRP
- shrunken log2 fold change: 0.0252

Sequence: RRIRMRPPRLPRPRPRPPPWPRP
- shrunken log2 fold change: 1.38

Sequence: RRIRGRPPRLPRPRPRPFDDPRP
- shrunken log2 fold change: 0.0195

Sequence: RRIRIRPPRLPRPRPRPRHCPRP
- shrunken log2 fold change: 0.0849

Sequence: RRIRDRPPRLPRPRPRPWRFPRP
- shrunken log2 fold change: -0.277

Sequence: RRIRERPPRLPRPRPRPRATPRP
- shrunken log2 fold change: 0.278

Sequence: RRIRLRPPRLPRPRPRPMAMPRP
- shrunken log2 fold change: 0.0591

Sequence: RRIRSRPPRLPRPRPRPATTPRP
- shrunken log2 fold change: 0.584

Sequence: RRIRQRPPRLPRPRPRPRWTPRP
- shrunken log2 fold change: 0.25

Sequence: RRIRLRPPRLPRPRPRPPNEPRP
- shrunken log2 fold change: -0.0407

Sequence: RRIRTRPPRLPRPRPRPRVHPRP
- shrunken log2 fold change: 0.0778

Sequence: RRIRFRPPRLPRPRPRPEYWPRP
- shrunken log2 fold change: -0.245

Sequence: RRIRDRPPRLPRPRPRPPTYPRP
- shrunken log2 fold change: -0.383

Sequence: RRIRERPPRLPRPRPRPCWVPRP
- shrunken log2 fold change: -0.26

Sequence: RRIRGRPPRLPRPRPRPGCLPRP
- shrunken log2 fold change: 1.01

Sequence: RRIRFRPPRLPRPRPRPRHWPRP
- shrunken log2 fold change: 0.437

Sequence: RRIRMRPPRLPRPRPRPGWVPRP
- shrunken log2 fold change: 0.0878

Sequence: RRIRHRPPRLPRPRPRPTPTPRP
- shrunken log2 fold change: 0.138

Sequence: RRIRVRPPRLPRPRPRPEPWPRP
- shrunken log2 fold change: 0.128

Sequence: RRIRYRPPRLPRPRPRPQGFPRP
- shrunken log2 fold change: -0.0121

Sequence: RRIRQRPPRLPRPRPRPPTPPRP
- shrunken log2 fold change: 0.538

Sequence: RRIRQRPPRLPRPRPRPTLCPRP
- shrunken log2 fold change: 0.00185

Sequence: RRIRRRPPRLPRPRPRPWLVPRP
- shrunken log2 fold change: -0.0986

Sequence: RRIRCRPPRLPRPRPRPEPGPRP
- shrunken log2 fold change: 0.364

Sequence: RRIRKRPPRLPRPRPRPGLYPRP
- shrunken log2 fold change: 0.324

Sequence: RRIRSRPPRLPRPRPRPAWNPRP
- shrunken log2 fold change: 0.467

Sequence: RRIRVRPPRLPRPRPRPTSMPRP
- shrunken log2 fold change: -0.192

Sequence: RRIRSRPPRLPRPRPRPHMSPRP
- shrunken log2 fold change: -0.223

Sequence: RRIRPRPPRLPRPRPRPFHTPRP
- shrunken log2 fold change: -0.569

Sequence: RRIRSRPPRLPRPRPRPGANPRP
- shrunken log2 fold change: 0.0967

Sequence: RRIRSRPPRLPRPRPRPMHNPRP
- shrunken log2 fold change: -0.179

Sequence: RRIRQRPPRLPRPRPRPQNAPRP
- shrunken log2 fold change: -0.198

Sequence: RRIRLRPPRLPRPRPRPYCSPRP
- shrunken log2 fold change: -0.00936

Sequence: RRIRPRPPRLPRPRPRPHIIPRP
- shrunken log2 fold change: -0.19

Sequence: RRIRLRPPRLPRPRPRPVWTPRP
- shrunken log2 fold change: 0.00633

Sequence: RRIRRRPPRLPRPRPRPMNKPRP
- shrunken log2 fold change: 0.0717
